Residue numbers refer to the chain shown, from its start. Numbers in names are those of the source.
B1: Escherichia coli FtsA, full length (natural protein, E. coli, UniProt P0ABH0 1-420, looked up)
chain: MIKATDRKLVVGLEIGTAKVAALVGEVLPDGMVNIIGVGSCPSRGMDKGGVNDLESVVKCVQRAIDQAELMADCQISSVYLALSGKHISCQNEIGMVPISEEEVTQEDVENVVHTAKSVRVRDEHRVLHVIPQEYAIDYQEGIKNPVGLSGVRMQAKVHLITCHNDMAKNIVKAVERCGLKVDQLIFAGLASSYSVLTEDERELGVCVVDIGGGTMDIAVYTGGALRHTKVIPYAGNVVTSDIAYAFGTPPSDAEAIKVRHGCALGSIVGKDESVEVPSVGGRPPRSLQRQTLAEVIEPRYTELLNLVNEEILQLQEKLRQQGVKHHLAAGIVLTGGAAQIEGLAACAQRVFHTQVRIGAPLNITGLTDYAQEPYYSTAVGLLHYGKESHLNGEAEVEKRVTASVGSWIKRLNSWLRKEF
notes: FtsA, Escherichia coli, full-length protein; also called EcFtsA; E. coli FtsA; source: E. coli C41(DE3), purified (HisTrap, chitin resin with intein cleavage, SEC); not shown: intein-CBD-12H, C-terminal, cleaved
B2: Escherichia coli FtsA I143L (FtsN suppressor mutant), full length (natural protein, E. coli, UniProt P0ABH0 1-420, looked up)
chain: B1 chain with I143L
notes: FtsA, Escherichia coli, full-length protein with I143L; also called EcFtsA^I143L; source: E. coli C41(DE3), purified (HisTrap, chitin resin with intein cleavage, SEC); not shown: intein-CBD-12H, C-terminal, cleaved
B3: Escherichia coli FtsA G50E (ZipA suppressor and filament architecture mutant), full length (natural protein, E. coli, UniProt P0ABH0 1-420, looked up)
chain: B1 chain with G50E
notes: FtsA, Escherichia coli, full-length protein with G50E; also called EcFtsA^G50E; source: E. coli C41(DE3), purified (HisTrap, chitin resin with intein cleavage, SEC); not shown: intein-CBD-12H, C-terminal, cleaved
B4: Escherichia coli FtsA E124A (FtsN suppressor mutant), full length (natural protein, E. coli, UniProt P0ABH0 1-420, looked up)
chain: B1 chain with E124A
notes: FtsA, Escherichia coli, full-length protein with E124A; also called EcFtsA^E124A; source: E. coli C41(DE3), purified (HisTrap, chitin resin with intein cleavage, SEC); not shown: intein-CBD-12H, C-terminal, cleaved

Target: the molecule itself
Assay: negative stain electron microscopy on supported lipid monolayers; full-length FtsA at 0.1-0.2 mg/ml with 1 mM ATP, without or with FtsN peptide (up to 10-fold molar excess), on E. coli polar lipid monolayers; binding buffer pH 7.7

Binding result, binds:
B1
B2
B3
B4
